# Experimental data: article PMC8733390, “Transcription Factor CitERF16 Is Involved in Citrus Fruit Sucrose Accumulation by Activating CitSWEET11d”
# T1: CitERF16 (Citrus, UniProt V4VLW3 1-243)
# T1 sequence: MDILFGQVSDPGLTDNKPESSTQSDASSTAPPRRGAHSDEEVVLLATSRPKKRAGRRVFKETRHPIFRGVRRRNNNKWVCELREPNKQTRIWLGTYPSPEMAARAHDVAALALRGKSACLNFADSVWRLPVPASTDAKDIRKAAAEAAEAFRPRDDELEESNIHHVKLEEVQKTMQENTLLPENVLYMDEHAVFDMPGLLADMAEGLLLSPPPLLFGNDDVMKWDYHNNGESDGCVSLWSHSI
# Target: T1, CitERF16
# Test: EMSA; unlabelled same-sequence probe reduced binding; LightShift Chemiluminescent EMSA kit (Thermo), per manufacturer; buffer, salt, pH and temperature not stated
# Conditions: protein: recombinant; tags: His (pET-32a vector fusion); label: 3'-biotin; blunt
binder,measurement,value
CitSWEET11d promoter probe (dsDNA) DNA 1: AAACGATGTCGGTACTCGGTCCGCATGCAATCATACAAAACAACAAGAAT DNA 2: ATTCTTGTTGTTTTGTATGATTGCATGCGGACCGAGTACCGACATCGTTT,binding result,binds
